IntAct's records for PubMed 23594738

B1: Protein lin-28 homolog A (Mus musculus), Q8K3Y3 (parent)
chain: MGSVSNQQFAGGCAKAAEKAPEEAPPDAARAADEPQLLHGAGICKWFNVRMGFGFLSMTARAGVALDPPVDVFVHQSKLHMEGFRSLKEGEAVEFTFKKSAKGLESIRVTGPGGVFCIGSERRPKGKNMQKRRSKGDRCYNCGGLDHHAKECKLPPQPKKCHFCQSINHMVASCPLKAQQGPSSQGKPAYFREEEEEIHSPALLPEAQN
partner: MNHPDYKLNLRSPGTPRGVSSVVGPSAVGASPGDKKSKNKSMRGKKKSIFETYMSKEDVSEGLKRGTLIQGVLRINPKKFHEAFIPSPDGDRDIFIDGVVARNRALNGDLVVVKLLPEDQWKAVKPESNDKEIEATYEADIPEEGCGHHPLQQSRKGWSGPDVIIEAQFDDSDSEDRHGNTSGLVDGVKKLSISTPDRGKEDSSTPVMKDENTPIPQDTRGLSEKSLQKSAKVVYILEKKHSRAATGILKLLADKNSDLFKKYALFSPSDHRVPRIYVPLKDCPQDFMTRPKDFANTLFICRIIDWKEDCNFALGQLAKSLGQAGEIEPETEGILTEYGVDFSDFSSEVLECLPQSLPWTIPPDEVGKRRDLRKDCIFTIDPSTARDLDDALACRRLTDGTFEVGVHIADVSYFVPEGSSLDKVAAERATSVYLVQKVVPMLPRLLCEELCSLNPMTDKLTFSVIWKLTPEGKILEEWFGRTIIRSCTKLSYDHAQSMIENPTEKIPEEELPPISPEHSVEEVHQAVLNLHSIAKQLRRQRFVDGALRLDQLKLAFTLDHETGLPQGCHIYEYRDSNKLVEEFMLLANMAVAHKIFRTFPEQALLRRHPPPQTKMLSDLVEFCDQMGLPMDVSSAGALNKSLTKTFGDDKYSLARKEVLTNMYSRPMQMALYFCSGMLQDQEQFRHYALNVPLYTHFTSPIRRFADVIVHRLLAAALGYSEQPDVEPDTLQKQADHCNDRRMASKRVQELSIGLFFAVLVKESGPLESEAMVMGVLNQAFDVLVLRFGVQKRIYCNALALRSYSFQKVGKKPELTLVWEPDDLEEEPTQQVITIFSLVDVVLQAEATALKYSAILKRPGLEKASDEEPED

Variants of: B1
Settings: with di3l2_mouse Dis3l2, Q8CI75

Variant	effect of a mutation on the interaction
MGSVSNQQFAGGCAKAAEKAPEEAPPDAARAADEPQLLHGAGICKAFNVRMGFGFLSMTARAGVALDPPVDVFVHQSKLHMEGFRSLKEGEAVEFTFKKSAKGLESIRVTGPGGVFCIGSERRPKGKNMQKRRSKGDRCYNCGGLDHHAKECKLPPQPKKCHFCQSINHMVASCPLKAQQGPSSQGKPAYFREEEEEIHSPALLPEAQN [W46A]	decreasing interaction strength
